The supplement of paper PMC12042874
± gives the uncertainty stated by the source.

Test: amyloid nucleation score (Sup35N fusion, yeast selection) (log enrichment); library NNK1; higher = more nucleation; inactive = no reads after selection
In short: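 Plasmid inserts were Illumina-sequenced at input and output from psi-negative yeast expressing Sup35N fused to peptides of 20 random codons. The yeast were induced with 100 μM copper sulfate for 24 hours and grown 7 days at 30°C on medium lacking adenine and uracil, and sequences with under 100 input reads were excluded. Nucleation score is the DiMSum log enrichment of output over input reads, centred on the mode score of non-aggregating sequences.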
In the case of RLFHFWQSDGLVGSTKRVDY, the amyloid nucleation score is reported as 0.128 ± 0.42. Work on AYTLRYTFRYKYWLRYRLAG yielded an amyloid nucleation score of 0.861 ± 0.58. RLRSMAAP gave an amyloid nucleation score of 0.513 ± 0.66. IVRVEWFSHYSFVFNGIDGG gave an amyloid nucleation score of 0.679 ± 0.54. Substance NGYYRLSWIKWVQKDGRVRR has an amyloid nucleation score of 0.598 ± 1. WLLISSALIIYVRHGLIRSM showed an amyloid nucleation score of -0.455 ± 0.81. Substance NIFWST has an amyloid nucleation score of 0.361 ± 0.78. Work on VGRNQNKTDEG yielded an amyloid nucleation score of 0.564 ± 0.95. In the case of RYYNFFMGLTWG, the amyloid nucleation score is reported as -0.395 ± 0.48. Substance ATGARLKLCQELRSTLGMLT has an amyloid nucleation score of -0.608 ± 0.45. Substance YDRMRTSIVRACERNLSDMH has an amyloid nucleation score of 0.786 ± 0.35. Work on RIMLFFCCSSKVFDFPVLLM yielded an amyloid nucleation score of 6.4 ± 0.064. Work on SLSMLTARGLILNMCNGMRF yielded an amyloid nucleation score of 1.52 ± 0.84. Substance PIHGISFFDAYNL has an amyloid nucleation score of -0.128 ± 1.4. CLSVLSCSVTSNYWLTS showed an amyloid nucleation score of 7.984 ± 0.056. Work on NDYYCFHRAIFFDTGMYFSN yielded an amyloid nucleation score of -0.009 ± 0.41. In the case of MLGSYLHVDSGNCTKVLRTV, the amyloid nucleation score is reported as 0.326 ± 0.41. FPEWNSWYQRRVMAKGAHGY showed an amyloid nucleation score of 0.58 ± 1.1. WRLMRECTFSVS gave an amyloid nucleation score of 0.137 ± 0.29. For QEGCQTLTSTSLVGGRKESS, the amyloid nucleation score was 0.872 ± 0.75. Work on WNSLSWRVRMRGDNQYRRGR yielded an amyloid nucleation score of 0.675 ± 1. For SYGSKFWEFLHFGESV, the amyloid nucleation score was -0.179 ± 0.66. For IVASYRYNYMYDLHLLSALQ, the amyloid nucleation score was “inactive”. Work on KDSFLMGGLFFMTAAWVSPR yielded an amyloid nucleation score of 1.54 ± 0.27. For DETDQNTFTTSIV, the amyloid nucleation score was 1.23 ± 0.28. With KRIDDYAKFRC the amyloid nucleation score was “inactive”. EISQNTL showed an amyloid nucleation score of -0.672 ± 0.32. KACFPLI showed an amyloid nucleation score of 0.631 ± 0.45. Substance TMDDYPLDLHCWAGS has an amyloid nucleation score of 0.767 ± 1. For RWNFFTFWFLW, the amyloid nucleation score was 0.048 ± 0.46. In the case of QHTNTSLSVTTPPVLYWNHC, the amyloid nucleation score is reported as 0.419 ± 0.45. For KLQMGFIKMFAGQECFDVHA, the amyloid nucleation score was “inactive”. Substance GTLHSKCRGICLDCVAIVIL has an amyloid nucleation score of -0.092 ± 0.39. Substance CYCFET has an amyloid nucleation score of -0.381 ± 0.71. RQFRIGNYENFATREWALGL showed an amyloid nucleation score of 1.7 ± 0.14. PLVFCIITGPCV gave an amyloid nucleation score of -0.468 ± 0.55. Substance DFILQMLL has an amyloid nucleation score of 0.401 ± 0.3. With LVESMNLIPATANRHNFTRL the amyloid nucleation score was -0.672 ± 1.4. In the case of WYSTFGAMKKLGTYPCSGVN, the amyloid nucleation score is reported as -0.46 ± 1. With WHPRSLVPPTRL the amyloid nucleation score was 0.758 ± 0.56. For GCTGPHFVYTDGRMHWSGSS, the amyloid nucleation score was -0.529 ± 0.49. Substance ITYIRHYCKPVVL has an amyloid nucleation score of 5.65 ± 0.11. SLNFTDHIYYMDGLLIAVVE showed an amyloid nucleation score of 0.358 ± 0.32. LGEMGRVSYLYVCLHWALLS gave an amyloid nucleation score of 0.119 ± 0.44. Work on LFLGGVIVHSQLCMTVGCCF yielded an amyloid nucleation score of 6.54 ± 0.079. For AILFLFFN, the amyloid nucleation score was 2.66 ± 0.14. Substance KFACLRWVICKYCLWV has an amyloid nucleation score of -0.412 ± 0.49. In the case of CVNQWILVPGRAF, the amyloid nucleation score is reported as “inactive”. SYHPLHVCCSSVFRELVIRD gave an amyloid nucleation score of 2.11 ± 0.43. Work on CSLILALPN yielded an amyloid nucleation score of 0.951 ± 0.6. LYSAGRCYARSCVKL showed an amyloid nucleation score of 0.829 ± 0.27. PNAVCGQWFEDQL showed an amyloid nucleation score of -0.269 ± 0.94. Substance FVLSIFYIWGKSPSRTYWMN has an amyloid nucleation score of -0.322 ± 0.74. FAQMWSLALRISVRNVISQF showed an amyloid nucleation score of 5.954 ± 0.047. In the case of AYSCDLVELRVCAVSVWEEW, the amyloid nucleation score is reported as 1.42 ± 0.41. Work on NNGAVVSGS yielded an amyloid nucleation score of -0.046 ± 0.25. For RCCGLYVSLWIS, the amyloid nucleation score was 0.425 ± 0.6. Work on WKQLTCWSEILDTIDSL yielded an amyloid nucleation score of 0.901 ± 0.79. With MRGFHSQRHSIAECVAIQKG the amyloid nucleation score was 0.359 ± 0.37. For SCGCYKSSLVNLL, the amyloid nucleation score was 0.328 ± 0.9. Work on LVISETWGSCFWNSVDSCAG yielded an amyloid nucleation score of 0.815 ± 0.66. ACHRTWKWVLRLRLLMRNNL gave an amyloid nucleation score of -0.712 ± 0.8. Substance FTRQLWYMSICRYFQLPTFY has an amyloid nucleation score of 1.95 ± 0.56. With CSVGASAIGNM the amyloid nucleation score was 0.717 ± 0.59. Substance NLVAT has an amyloid nucleation score of 1.09 ± 0.67. DKNGIPYISCEYNQM showed an amyloid nucleation score of -0.46 ± 0.72. In the case of MSDLLSVVN, the amyloid nucleation score is reported as 0.142 ± 0.81. Substance VIHVSTYDSGVLPLKEDGTF has an amyloid nucleation score of 0.151 ± 0.4. YLFKSISCNSGRTRNQPKGQ gave an amyloid nucleation score of -0.195 ± 1.4. In the case of SGLFMWYGSQTPYNIMMKQK, the amyloid nucleation score is reported as “inactive”. KCLTLSCILDVCKNIVEEMI gave an amyloid nucleation score of 0.047 ± 0.46. LFFEVMHTFMLNMEFLLRFI gave an amyloid nucleation score of -1.12 ± 0.94. For CLLIVRISNSKFVVPPTVFA, the amyloid nucleation score was 0.608 ± 0.49. For WGNLASRLQALDQVRRSGSM, the amyloid nucleation score was -0.56 ± 0.57. Work on TGVCTGECWYRGLVQSCSGA yielded an amyloid nucleation score of -0.239 ± 0.53. With KHVGWSYG the amyloid nucleation score was 0.779 ± 0.48. With PRELEKFTLQKSGLHPWISL the amyloid nucleation score was -0.686 ± 1.4. YVRWMSLAPSVQWH gave an amyloid nucleation score of 1.11 ± 0.19. For SLQISCQWYAVWGHMLLSDF, the amyloid nucleation score was “inactive”. ITFIVAGI showed an amyloid nucleation score of -0.113 ± 0.21. Substance KSDLLNMRWVGYWFIVSSMR has an amyloid nucleation score of 0.099 ± 0.67. Work on SNAIVTFIVGVAAPGTYYS yielded an amyloid nucleation score of 6.47 ± 0.062. In the case of HWPGLVEYGLGWLRGRLVMG, the amyloid nucleation score is reported as 0.139 ± 0.6. KSFYGNFRGFFNALNIYHSS showed an amyloid nucleation score of 1.83 ± 0.28. Work on LVIALSQTDAYGELVSRNMC yielded an amyloid nucleation score of 1.06 ± 0.97. For QLCGVVK, the amyloid nucleation score was -1.07 ± 1.6.
